# Measured values: article PMC2660415
# Legend:
# Test in all cases: SEC; gel filtration on Superdex 200 (AKTA-FPLC) followed by SDS-PAGE; P proteins released from GST by thrombin; P particles form a peak at ~830 kDa and the P dimer at ~69 kDa
# [1] = biological target: Norwalk virus (GI-1) P domain with N-terminal CNGRC peptide, wild type (P particle / P dimer) (Norwalk virus (GI-1))
# [2] = biological target: Boxer (GI-8) norovirus P domain with C-terminal … peptide, wild type (P particle / P dimer) (norovirus strain Boxer (GI-8))
# [3] = biological target: VA207 (GII-9) norovirus P domain with C-terminal … peptide, wild type (P particle / P dimer) (norovirus strain VA207 (GII-9))
# [4] = biological target: MOH (GII-5) norovirus P domain with C-terminal … peptide, wild type (P particle / P dimer) (norovirus strain MOH (GII-5))
substance,measurement,setting,value
"Norwalk virus (GI-1) P domain with N-terminal CNGRC peptide, wild type (P particle / P dimer) (domain or fragment)",efficiency of P particle formation,[1],70%
"Boxer (GI-8) norovirus P domain with C-terminal … peptide, wild type (P particle / P dimer) (domain or fragment)",efficiency of P particle formation,[2],80%
"VA207 (GII-9) norovirus P domain with C-terminal … peptide, wild type (P particle / P dimer) (domain or fragment)",efficiency of P particle formation,[3],90%
"MOH (GII-5) norovirus P domain with C-terminal … peptide, wild type (P particle / P dimer) (domain or fragment)",efficiency of P particle formation,[4],80%
